Test results published in patent US20250205337A1, “COMPOSITIONS AND METHODS FOR ACTIVATING IMMUNE CELLS” (MDX Management LLC, priority 2022, published 2025).
Entries after “also recorded” stand apart in the source; their conditions may differ.

Tests used:
Format in all cases: cell-based, human
[1] = tested on: monocytes from cancer patients (cMo); experiment: cMo survival in vitro (STAT3 activators, inhibitors, M-CSF/GM-CSF, KX1); conditions: for effect of inhibitor on KX1-supported cMo survival: cMo in KX1; for cMo survival (and differentiation) on supplementation: IL-10-depleted KX1 / in place of IL-10
Text: After two days, the T cell culture medium was used to treat cMo.
IL-10/IL-10R signaling activates the downstream STAT3 signaling pathway.
(§1) The mechanisms by which KX1 could promote cMo survival was further studied.

[2] = tested on: monocytes from cancer patients (cMo); experiment: Cytokine depletion assays of Karnelian X1 (cMo survival/adhesion and differentiation); conditions: for role of the cytokine in Karnelian X1 for cMo survival and differentiation: depletion assays
Method: The differentiation of cMo from >100 cancer patient samples was tested.
The role of IL-10 and other key factors in KX1 was further studied.

[3] = tested on: Akt, Erk1/2, STAT3, caspase-9 and caspase-3 in cMo; experiment: Survival and apoptosis signal transduction in cMo (Western blotting)
Text: (§2) Examination of Akt and Erk1/2, as well as other signaling molecules, detected similar total levels in Mo versus cMo (FIG. 2C), ruling out the absence of protein phosphorylation due to reduction of protein translation.
as §1
The role of IL-10 and other key factors in KX1 was further studied. As shown in FIG. 9A-9D, depletion of IL-10 diminished (>70%) KX1-mediated activation of Akt, Erk 1/2, and STAT3, and this global reduction of survival signal was associated with an increase in cell death signal through activation of caspase-9 and caspase-3.
As shown in FIG. 10A-10C, triple cytokine combination (C-combo V1) was capable of achieving >80% cMo differentiation, although each component alone was not sufficient.

[4] = tested on: monocytes from healthy donors (Mo); experiment: Response of monocytes from healthy donors (Mo) to M-CSF and GM-CSF
Text: Similarly, cMo poorly respond to GM-CSF alone or GM-CSF plus IL-4 that drives DC differentiation (data not shown). […] Parallel experiments testing the same M-CSF and GM-CSF reagents successfully differentiated Mo from healthy donors with >90% survival rates.
as §2

[5] = cytokine depleted from Karnelian X1
[6] = in vitro, at optimal concentration
[7] = promoting cMo survival in vitro
[8] = promoting cMo survival in vitro, small molecule STAT3 activators

## N#CC(=C(/N)Sc1ccccc1N)/C(C#N)=C(\N)Sc1ccccc1N [U0126, reference compound]
[1]
  effect of inhibitor on KX1-supported cMo survival: abrogated KX1 effectiveness

## TNFα
[2]; [5]
  reduction of cMo adhesion and survival on depletion of the cytokine from Karnelian X1: ~20%

## IL-6: Interleukin 6, IL-6 family cytokine
[1]
  cMo survival (and differentiation) on supplementation: only moderately supported cMo survival and differentiation
[1]; [6]
  Effectiveness (cMo survival rate): 20-30%
[1]; [7]
  Optimal concentration: 20 to 100 ng/mL
[3]
  activation of Akt, Erk1/2, STAT3 in cMo: weaker ability to activate Akt in cMo
[2]
  role of the cytokine in Karnelian X1 for cMo survival and differentiation: variable

## Cc1[nH]nc2ccc(-c3cncc(OC[C@@H](N)Cc4ccccc4)c3)cc12 [A-674563, reference compound]
[1]
  effect of inhibitor on KX1-supported cMo survival: abrogated KX1 effectiveness

## NC1(Cc2ccc(Cl)cc2)CCN(c2ncnc3[nH]ccc23)CC1 [CCT128930, reference compound]
[1]
  effect of inhibitor on KX1-supported cMo survival: abrogated KX1 effectiveness

## IL-17: cytokine in Karnelian X1
[2]
  role of the cytokine in Karnelian X1 for cMo survival and differentiation: dispensable

## CC(=O)c1cc2c(o1)C(=O)c1ccccc1C2=O [Napabucasin, reference compound]
[1]
  effect of inhibitor on KX1-supported cMo survival: dose-dependently nullified the effect of KX1

## GM-CSF: Granulocyte-macrophage colony-stimulating factor
[1]; over twenty cMo samples, various solid tumors
  cMo responsiveness to differentiation factor: non- or poor responsiveness
[3]
  activation of Akt, Erk1/2, STAT3 in cMo: failed to activate Akt and Erk1/2
  caspase-9 and caspase-3 cleavage in cMo: increased caspase-9 and caspase-3 cleavage; also recorded: did induce apoptotic signals via cleavage of caspase-9 and caspase-3
[4]
  survival signal transduction in Mo (activation of Akt and Erk1/2): induced strong survival signal transduction in Mo cells
[2]
  role of the cytokine in Karnelian X1 for cMo survival and differentiation: variable

## Colivelin TFA [reference compound]
[1]
  cMo survival (and differentiation) on supplementation: restored cMo survival
[1]; [6]
  Effectiveness (cMo survival rate): 90-100%
[1]; [8]
  Optimal concentration (ng/mL): 10000 to 100000 ng/mL

## COc1c(O)cc2oc3cc(O)c(CC=C(C)C)c(O)c3c(=O)c2c1CCC(C)(C)O [Garcinone D, reference compound]
[1]
  cMo survival (and differentiation) on supplementation: restored cMo survival
[1]; [6]
  Effectiveness (cMo survival rate): 90-100%
[1]; [8]
  Optimal concentration (ng/mL): 500 to 2000 ng/mL

## JAK inhibitor I [reference compound]
[1]
  effect of inhibitor on KX1-supported cMo survival: dose-dependently nullified the effect of KX1

## COc1ccc(S(=O)(=O)Nc2cc(-c3c(O)ccc4ccccc34)c(O)c3ccccc23)cc1 [C188-9, reference compound]
[1]
  effect of inhibitor on KX1-supported cMo survival: dose-dependently nullified the effect of KX1

B1: IL-11: IL-6 family member cytokine (protein, UniProt P20809 22-199, looked up)
Interleukin-11: PGPPPGPPRVSPDPRAELDSTVLLTRSLLADTRQLAAQLRDKFPADGDHNLDSLPTLAMSAGALGALQLPGVLTRLRADLLSYLRHVQWLRRAGGSSLKTLEPELGTLQARLDRLLRRLQLLMSRLALPQPPPDPPAPPLAPPSSAWGGIRAAHAILGGLHLTLDWAVRGLLLLKTRL
[1]
  cMo survival (and differentiation) on supplementation: only moderately supported cMo survival and differentiation

B2: IL-10: Interleukin 10, cytokine; recombinant form added back; IL-10 family STAT3 activator (protein, UniProt P22301 19-178, looked up)
Interleukin-10: SPGQGTQSENSCTHFPGNLPNMLRDLRDAFSRVKTFFQMKDQLDNLLLKESLLEDFKGYLGCQALSEMIQFYLEEVMPQAENQDPDIKAHVNSLGENLKTLRLRLRRCHRFLPCENKSKAVEQVKNAFNKLQEKGIYKAMSEFDIFINYIEAYMTMKIRN
[1]
  cMo survival (and differentiation) on supplementation: dose-dependently restored its survival capacity
[1]; [6]
  Effectiveness (cMo survival rate): 90-100%
[1]; [7]
  Optimal concentration (ng/mL): >10 ng/mL (10-100)
[3]; cytokine depleted from KX1
  diminution of KX1-mediated activation of Akt, Erk 1/2 and STAT3: > 70%
[2]; IL-10 depleted from Karnelian X1
  remnant cells that survived IL-10 depletion: 5-20%
[2]; [5]
  reduction of cMo adhesion and survival on depletion of the cytokine from Karnelian X1: 60-80%
[2]
  role of the cytokine in Karnelian X1 for cMo survival and differentiation: only weakly influence cMo differentiation to APCs

B3: IL-23: IL-12 family cytokine, STAT3 activator (protein, UniProt Q9NPF7 20-189; P29460 23-328, looked up)
Interleukin-23 subunit alpha: RAVPGGSSPAWTQCQQLSQKLCTLAWSAHPLVGHMDLREEGDEETTNDVPHIQCGDGCDPQGLRDNSQFCLQRIHQGLIFYEKLLGSDIFTGEPSLLPDSPVGQLHASLLGLSQLLQPEGHHWETQQIPSLSPSQPWQRLLLRFKILRSLQAFVAVAARVFAHGAATLSP
Interleukin-12 subunit beta: IWELKKDVYVVELDWYPDAPGEMVVLTCDTPEEDGITWTLDQSSEVLGSGKTLTIQVKEFGDAGQYTCHKGGEVLSHSLLLLHKKEDGIWSTDILKDQKEPKNKTFLRCEAKNYSGRFTCWWLTTISTDLTFSVKSSRGSSDPQGVTCGAATLSAERVRGDNKEYEYSVECQEDSACPAAEESLPIEVMVDAVHKLKYENYTSSFFIRDIIKPDPPKNLQLKPLKNSRQVEVSWEYPDTWSTPHSYFSLTFCVQVQGKSKREKKDRVFTDKTSATVICRKNASISVRAQDRYYSSSWSEWASVPCS
[1]
  cMo survival (and differentiation) on supplementation: could replace IL-10 to support cMo survival and differentiation
[1]; [6]
  Effectiveness (cMo survival rate): 50-70%
[1]; [7]
  Optimal concentration (ng/mL): >10 ng/mL (10-100)

B4: IL-4: Interleukin 4, cytokine in Karnelian X1 (protein, UniProt P05112 25-153, looked up)
Interleukin-4: HKCDITLQEIIKTLNSLTEQKTLCTELTVTDIFAASKNTTEKETFCRAATVLRQFYSHHEKDTRCLGATAQQFHRHKQLIRFLKRLDRNLWGLAGLNSCPVKEANQSTLENFLERLKTIMREKYSKCSS
[2]; [5]
  reduction of cMo differentiation to APCs: ~50%
[2]
  role of the cytokine in Karnelian X1 for cMo survival and differentiation: did not affect cMo survival/adhesion

B5: G-CSF: growth factor tested in IL-10-depleted KX1 (protein, UniProt P09919 31-207, looked up)
Granulocyte …: TPLGPASSLPQSFLLKCLEQVRKIQGDGAALQEKLVSECATYKLCHPEELVLLGHSLGIPWAPLSSCPSQALQLAGCLSQLHSGLFLYQGLLQALEGISPELGPTLDTLQLDVADFATTIWQQMEELGMAPALQPTQGAMPAFASAFQRRAGGVLVASHLQSFLEVSYRVLRHLAQP
[1]; in IL-10-depleted KX1
  Effectiveness (cMo survival rate): 30-40% in
  Optimal concentration (ng/mL): >1 ng/mL (1-200)

B6: IFNγ: Interferon gamma, cytokine in Karnelian X1 (protein, UniProt P01579 24-161, looked up)
Interferon gamma: QDPYVKEAENLKKYFNAGHSDVADNGTLFLGILKNWKEESDRKIMQSQIVSFYFKLFKNFKDDQSIQKSVETIKEDMNVKFFNSNKKKRDDFEKLTNYSVTDLNVQRKAIHELIQVMAELSPAAKTGKRKRSQMLFRG
[2]; [5]
  reduction of cMo adhesion and survival on depletion of the cytokine from Karnelian X1: ~20%

B7: IL-24: IL-10 family cytokine, STAT3 activator (protein, UniProt Q13007 52-206, looked up)
Interleukin-24: QEFHFGPCQVKGVVPQKLWEAFWAVKDTMQAQDNITSARLLQQEVLQNVSDAESCYLVHTLLEFYLKTVFKNYHNRTVEVRTLKSFSTLANNFVLIVSQLQPSQENEMFSIRDSAHRRFLLFRRAFKQLDVEAALTKALGEVDILLTWMQKFYKL
[1]
  cMo survival (and differentiation) on supplementation: could replace IL-10 to support cMo survival and differentiation
[1]; [6]
  Effectiveness (cMo survival rate): 70-85%
[1]; [7]
  Optimal concentration (ng/mL): >20 ng/mL (20-100)

B8: IL-22: IL-10 family cytokine, STAT3 activator (protein, UniProt Q9GZX6 34-179, looked up)
Interleukin-22: APISSHCRLDKSNFQQPYITNRTFMLAKEASLADNNTDVRLIGEKLFHGVSMSERCYLMKQVLNFTLEEVLFPQSDRFQPYMQEVVPFLARLSNRLSTCHIEGDDLHIQRNVQKLKDTVKKLGESGEIKAIGELDLLFMSLRNACI
[1]
  cMo survival (and differentiation) on supplementation: could replace IL-10 to support cMo survival and differentiation
[1]; [6]
  Effectiveness (cMo survival rate): 80-100%
[1]; [7]
  Optimal concentration (ng/mL): >10 ng/mL (10-100)

B9: IL-19: IL-10 family cytokine, STAT3 activator (protein, UniProt Q9UHD0 25-177, looked up)
Interleukin-19: LRRCLISTDMHHIEESFQEIKRAIQAKDTFPNVTILSTLETLQIIKPLDVCCVTKNLLAFYVDRVFKDHQEPNPKILRKISSIANSFLYMQKTLRQCQEQRQCHCRQEATNATRVIHDNYDQLEVHAAAIKSLGELDVFLAWINKNHEVMFSA
[1]
  cMo survival (and differentiation) on supplementation: could replace IL-10 to support cMo survival and differentiation
[1]; [6]
  Effectiveness (cMo survival rate): 70-85%
[1]; [7]
  Optimal concentration (ng/mL): >10 ng/mL (10-100)
